Measurements published in the nanobody polyreactivity screen of Harvey et al. (2022).

Assay: yeast display, Sf9 membrane polyspecificity reagent, FACS + sequencing; frameworks hold sequencing errors
In short: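 Genes from sorted yeast were amplified by colony PCR, read by MiSeq 2 × 250 sequencing and filtered on CDR length. These cells carried a synthetic nanobody library in Saccharomyces cerevisiae BJ5465 and were sorted by FACS into low and high (top ~1%) gates on anti-HA and streptavidin fluorescence. Polyreactivity is labelled according to the gate of origin.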

| Sequence | polyreactivity (PSR sort gate) |
| --- | --- |
| QGQLVESGGGLVQAGGSLRLSCAASGYIIRAYAMGWYRQAHGKERELVAAISSRGGSTYYADSVKGRFTISRDNAKNTVYLQMNSLKPEDTAVYYCAAAYRQPYIGYGYWGQGTQVTVSS | high polyreactivity |
| QGQLVESGGGLVQAGGSLRLTCAASGSIFYVYDIGWYRPAPGKERELVANIRDGGITYADSVKGRFTISRDNAKYTVYLQMNSLKPEDTAVYYCARDDTSPGYGDQSSNAAYYYWGQGTQVTVSS | low polyreactivity |
| QGQLVESGGGLVQGGGSLRFSCAASGITFQRYALGGYRQAPGKDRALVAAIRRSGTSTYYADSVKGRFPITRHNAKNPVHLQMNSLKPEDTAVKYCAAGSYPTEGSKYGYWGQGTQVTGSS | high polyreactivity |
| QGQLVESGGRLVQAGGSLRLSCAASGFIFDAYAMGWYRQAPWKERELVAAIDYSGGNTYYADSVTGRFTISRDNAKNTVYLQMNSLTPEDTAVYYCNADYAGSFWSREYDYWGQGTQVTVSS | low polyreactivity |
| QGQLVESGVGLVQAGGSLRLSCAASGLTFSWYAMGWYRQAPGKERELVAVITTSGGSTYYSDSVKGRFTISRDNAKNTVYLQMNSLKPEDTAVYYCAVGVPSWEFDYWGQGTHVTVSS | low polyreactivity |
| QGQLVESWGGLVQAGGSLRLICAASGFNLGRYAKGWYRQAPGKERELVAAISIGGRTNYADSVKERFTISRDNSKTSVYLHLKSLKPEVTAVYYSAADVRGSAYTTGDYWGQGTQVTVTS | low polyreactivity |
| QGQLVETGGGLVQAGGSLRLSCAASGRIFDDNAMGWYRQAPGKERELVASITVSTGSTYYADSVKGRFTISRDNAKNTVYLKMNSLKPEDTAVYYCAKDNSLPDYDYWGQGSQVTVSS | low polyreactivity |
| QGQRVESGGGLVQAGGSLRLSCAASGFIFSYYTMGWYRQAPGKERELVAAISSTGRTNYADSVKGRFTISRDNAKHTVYLQMNSLKPDDTAFYYCNAAKLSYGPWRGYYKLDVWGQGTQVTVSS | high polyreactivity |
| QGQRVESGGGLVQAGGSLRLSCAASGRIFTFYAMGWYRPAPGKERELVAAITWGDGSTYYADSVKGRFTISRDNAKNTVYLQMNSLKPEDTAVYYCNKTYIDTTVYVVIMDYWGQGTQVTVSS | low polyreactivity |
| QGQRVESGGGLVQAGGSLRLSCAASGRIFTQYAMGWYRQAPGKARELVAASNASDGSTYADSVKGRFTISRDNAKNTVYIQINSLKPEDTAVYYCNVTGGPYDFTRWSEFDHWGQGTHVTVSS | low polyreactivity |
| QGQRVESGGGLVQAGGSLRLSCAASGSTFPWYAMGWYRQARGSERELVAGISEGGASTYYADSVKGRFTISRDNAKNTVYLQMNSLNPEDTAVYYCAADQVGAVYWVGEYGYWGQGTHVTVSS | low polyreactivity |
| QIQLVESCGGLVQPGGSLRLSCAASGFTFYRYSRGWYRQAPGKERELVAPISTSGVSTYYADSVKGRFTISRDNAKNTVYLQMNSLKPEDTAVYYWAASAGPRASYYYWGQGTQVTVSS | high polyreactivity |
| QIQLVESGGGIVQAGGSLRLSCAASGFIFNTYDMGWYRQAPGKEMELVAVITSGGTTNYADSVKGRFTISRDNAKNTVYLQINCLKPEDTAVYSCNRDSVLDPGNPKPYVFDYWGQGTQVTVSS | low polyreactivity |
| QIQLVESGGGLVQAGGSLRLSCAASGFTFYYYVMGWYRQAPGKERELVAAISSRGGSTYYADSVKGRFTISRDNAKNTVYLQMNSLKPEDTAVYYCAATYWPYRPGYYYWGQGTQVTVSS | high polyreactivity |
| QLHLVESAGGLVQAGGSLRLSCVYSGLTQPYAMGWYRHAPGKEREWVAGITCRGASTYYADSVKGRFTISRDNAKNTVYLQLNSLKPEDTAVYYCAARSTIQRRGYYGYRVGLSEYGYWGQGTQVTVSS | low polyreactivity |
| QLKHVESGGGLVQAGGSLRLSCAASVGTFGLNAMGRYRQAPGKERELVADIDGRGGSTYYADSVKGRFTISRDNAKNTVNLQMNTLKPEDTAVYYCAARAPFLSVPSELDYCGQGTQVTVSS | low polyreactivity |
| QLKLEESGGRLVQAGGSLRLSCASSGRTFTYYVMGCYRQAPGKERELVAAISDSGGSTYYADSVKGRFTISRDNAKNTVYLQMNSLKPEDTAVYYCATDSYWYRLREYNYWGQGTQVTVSS | high polyreactivity |
| QLQHVESGGGLVQAGGSLRLSCAGTGRIMWRNAMGWYRQAPGKEMELVAAITSGSRTSYADSVKGRFTISRDNSKNTVYLQMNSLKPEDTAVYYCARRSYGIYYRSADESWGQGTQVTVSS | high polyreactivity |
| QLQLEESGGGLVQAGGSLRLSCAASANTIYQYAMGRYRQAPGKERELVAAIDWSGGSTYADSVKGRFTISRDNAKNTVYLQMNSLKPEDTAFYYCNASVKPSNVWSRGYDYWGQGTQVTVSS | low polyreactivity |
| QLQLEESGGGLVQAGGSLRLSCAASGFIFYSNAMGWYRKAPGKERELVASIPGDGGTTYYADSVKGRFTISRDNAKNTVYLQMNSLKPEDTAFYYCAKDYIYRGYYTDFRYEDYEYWGQGTQVTVSS | low polyreactivity |
| QLQLEESGGGLVQAGGSLRLSCAPSGSILNIYAMGWYRQAPGKERELVAVITSGTNTNYAVSVKGRFTISRDNAKNTVYLQMNSRKPEDTAVYYCNDEKYWWGYEYWGQGTQVTVSS | high polyreactivity |
| QLQLEESGGGLVQAGGSLRLSSAASGSIFYPNVMGWYRQAPGKERELVAAISWGGTSTNYADSVKGRFTISRDNAKNTVYLQMNSLKPEDTAVYYCAARTYWYGYNYWGQGTQVTVSS | high polyreactivity |

| Sequence | polyreactivity (PSR sort gate) |
| --- | --- |
| QLQLGESGRGGVQAGGSLRVSCAPSGLPFIYYAMGWYRPAPGKVRELVATISQSGSSTYYADSVKGRFTSSRDHATNTVDLQMNSLKPADTAVDYCNVSSVRWARFDYWGQGTQVTVSS | high polyreactivity |
| QLQLQESGGGLVQADGSLRLSCAASGSIFGYYYMGWYRQAPGKDRELVATINICGITNYADSVKGRFTISRDNAKNTVYLQMNSLKPDDTAVYYCAADEYAQRDLGYWGQGTQVTVSS | low polyreactivity |
| QLQLQESGGGLVQAGGSLRLSCAASALITKVYSMGWYRQAPGKERELVAVINSNGGSTYYADSVKGRFTISRDNAQNTVYLQMNSLKPEDTAVYYCRYFRPYGYNYWGQGTQVTVSS | high polyreactivity |
| QLQLQESGGGLVQAGGSLRLSCAASGNISVTGFMGWYRQAPGKERELVASIGIGGTTYYADSVKGRFSISRDNAKNTVYLQMNSLKPEDTAVYYCAARYLYYAYSYWGQGTQVTVSS | low polyreactivity |
| QLQLVDSGGGLVQAGGSLRLSCAASGRIFSANAMGWYRQAPGKERELVAAIDGSDGITYYADSVKGRFTISRDNAKNTVYLQMNSLKPEDTAVYYCAAYLPYTTYRYRYDYWGQGNQVTVSS | high polyreactivity |
| QLQLVESGGCLVQAGGSLRLSCAASGIIFVVNDMGWYRQAPGNARELVADISDSGGSTNYADSVKGRFTISRDNAKNSVYLQMNSLKPEDTAVYYCAADSADPTEYDYWGQGTQVTLSS | low polyreactivity |
| QLQLVESGGGLFQAGGSLRLSCAPSGFIFTAYTMGWYRQAHGKESELVAAIDSGGGTYYADYVKGRFTISRYNAKNTVYLQIHSLKPDDTAVYYCAADPAKSRAGDFDYWGQGTQVTVSS | high polyreactivity |
| QLQLVESGGGLVQAGASLRLSCAASGSILWPSARGWYRQAPGKERELVAAISTGGSTYYADSVKGRFTISRDNAKNTVYLQMNSLKPEDTAVYYCAAYVDYSVYFGGGYWGQGTQVTVSS | low polyreactivity |
| QLQLVESGGGLVQAGGSLRLICADSGRTFPSNTMGWYRQAPGKERELVAAITNSGGSTYYADSVKGRFTISRDNAKNTVYLQMNSLKPEDTAVYYCAKVVGAPYVEYDYWGQGTQVSVSS | low polyreactivity |
| QLQLVESGGGLVQAGGSLRLSCAASGFIFPDYAMGWYRQAPGTERELVAAMRIRDGSTYYADSVKGRFTISRDNAKNTVYLQMNSLKPEAPAVYYCAVRSSYGYSDTNYIMYYWGQGTQVTVSS | low polyreactivity |
| QLQLVESGGGLVQAGGSLRLSCAASGFTFRWNAMGWYRQAPGKERELLAAITNDDSTYYADSVKGRFTISRDNAKNSVYLQLNSLKPEDTAVYYCNARYGRYLDLDTGVALAGRGYWGQGTQVTVSS | low polyreactivity |
| QLQLVESGGGLVQAGGSLRLSCAASGFTFSAYAMGSYRQAPGKERELVAAISWSGGSTYYADSVKGRFTISRDNAKNTVYLQRNSLKPEDTAVYYCAADFHSYYRFDYWGQGTQVTVSS | high polyreactivity |
| QLQLVESGGGLVQAGGSLRLSCAASGITLYRYVMGWYRQAPGKERELVADISGRGTSTYYADSVKGRFTISRDNAKNTVYLQMNSLKPEDTSVYYCNAEYTKTGALVIPYTYYYAADYWGQGTQVTVSS | low polyreactivity |
| QLQLVESGGGLVQAGGSLRLSCAASGLIFPFYAMGWYRQAPGKERELVAAITSSGNTYYADSVKGLFTISRDNAKNTVYLQMNSLKPEDTAVYYCAADGSRIVKFDYWGQGTQVTVSS | high polyreactivity |
| QLQLVESGGGLVQAGGSLRLSCAASGRIFDGNTMGWYRQAPGKERELVAAITYSGGRTSYADSVKGRFTISRDNAKNTVYLQMISLKPEDTAVYYCNARVVTGSWYEGYYWGQGTQVTVSS | low polyreactivity |
| QLQLVESGGGLVQAGGSLRLSCAASGRIFRKNAMGWYRQAPGKERELVAAITSSGNTYYADSVKGRFTISRDNAKNTVYLQMNSLKTEDTAVYYCAARLKWLNRYGYDYWGQGTQVTVSS | low polyreactivity |
| QLQLVESGGGLVQAGGSLRLSCAASGRIFYPYAMGWYRQAPGKERELVPAIDYSDGNSYYADSVKGRFTISRDNAKNTVYLQMNSLKPEDTAVYYWAVEYTGAWIGVWYDYWGQGTQVTVSS | high polyreactivity |
| QLQLVESGGGLVQAGGSLRLSCAASGRIFYVNAMGWYRQAPGKERELVASITDGSSTYYADSVKGRFTISRDNAKNTVYLQMNILKPEDTAVYYCAVRAAYWGAHYYYWGQGTQVTVSS | high polyreactivity |
| QLQLVESGGGLVQAGGSLRLSCAASGRTFDSYAMGWYRQPPGKERELVAAIYADSVKGRFTISRDIAKNTVYLQMYSLTPEDSAVYYCAAETYSGQTYLGEYDYWGQGTQVTVSS | low polyreactivity |
| QLQLVESGGGLVQAGGSLRLSCAASGRTFQLYAMGWYRQAPGKERELVAAISYSGGSTYYADSVKGRFTISRDNAKNSVYLQTNSLKPEDTAVYYCAARPRSTRPSYYYRSAGYYWGQGTQVTLSS | high polyreactivity |
| QLQLVESGGGLVQAGGSLRLSCAASGSIFVVNAMGWYRQAPGKERELVAAISRGGITNYADSVKGRFTISRDNAKNTVYLQMNILKPEDTAVYYCNARGSRWVKPERDYWGQGTQVTVSS | low polyreactivity |
